Like-named read-outs stand apart in the source and are kept apart here.
Tests used:
Fc-CD22 [1] = target: Fc-CD22 (UniProt P20273); assay: BIACORE, Fc-CD22 on CM5 chip, no G5/44
Fc-CD22 [2] = target: Fc-CD22 (UniProt P20273); assay: BIACORE, Fc-CD22 on CM5 chip; competitor G5/44 pre-bound
[3] = target: T1, human CD22 on the surface of B cells (Ramos, RL, Daudi, Raji lymphoma cells; B cell lymphoma tissue) (human, UniProt P20273 20-847); assay: cell-based or functional assay
[4] = target: T2, CD33 on CD22- CD33+ HL-60 leukemia cells (human, UniProt P20138 18-364); assay: flow cytometry
T2 construct: whole, on cells
T2 sequence (P20138 18-364): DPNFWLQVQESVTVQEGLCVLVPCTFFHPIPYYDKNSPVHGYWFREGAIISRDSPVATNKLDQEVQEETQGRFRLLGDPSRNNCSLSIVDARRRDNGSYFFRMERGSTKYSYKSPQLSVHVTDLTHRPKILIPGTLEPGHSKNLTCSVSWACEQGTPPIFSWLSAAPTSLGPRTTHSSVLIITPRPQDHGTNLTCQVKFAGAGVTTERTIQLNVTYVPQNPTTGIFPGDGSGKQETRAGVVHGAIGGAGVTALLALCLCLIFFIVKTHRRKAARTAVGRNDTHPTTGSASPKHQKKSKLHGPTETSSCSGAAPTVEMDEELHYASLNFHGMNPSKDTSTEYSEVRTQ
Description: Purified human polyclonal IgG1 and IgG4 were also used as negative controls.

CD22mFc [5] = target: T3, CD22mFc (UniProt P20273 20-687, limits assumed); assay: SPR (BIACORE 2000), CD22mFc on CM5 chip, global 1:1 Langmuir fit with mass transfer
T3 construct: also called CD22-mFc constructs; not shown: mouse Fc (captured by anti-mouse Fc)
Procedure: (§1) Biosensor analyses were carried out using a BIACORE™ 2000 (BIAcore AB, Uppsala, Sweden). CD22mFc was covalently immobilized on the N-hydroxysuccinimide-activated carboxymethyl dextran-coated biosensor chip (CM5) using a standard amine-coupling chemistry at a protein density of approximately 2000 resonance units. […] After the binding phase, dissociation of the bound antibody was monitored by washing the chip with the HBS buffer over a 15 minute period. The antigenic surface was regenerated by washing the Biosensor chip with 15 μl of the regeneration buffer (10 mM NaOH and 200 mM NaCl) for 30 seconds, followed by a stabilization time of 2 minutes before the next cycle. Kinetic constants were calculated by nonlinear least square regression analysis using a 1:1 Langmuir binding curve fitting model and BIAevaluation program (version 3.0, BIAcore).

[6] = target: T1, human CD22 on the surface of B cells …; assay: cell-based or functional assay; remark: listed apart in the source
[7] = target: T1, human CD22 on the surface of B cells …; assay: cell-based or functional assay; remark: listed apart in the source
CD22mFc [8] = target: T3, CD22mFc; assay: SPR (BIACORE 2000), CD22mFc immobilized on CM5 chip
Procedure: as §1

CD22mFc [9] = target: T3, CD22mFc; assay: Biacore 2000; CD22mFc captured via immobilized anti-mouse Fc, antibody in the soluble phase; column head '~KD nM'
Procedure: (§2) All binding measurements were performed in the BIACORE™ 2000 instrument (Pharmacia Biosensor AB, Uppsala, Sweden). The assay was performed by capture of CD22mFc via the immobilized anti-mouse Fc. The antibody was in the soluble phase. Samples, standard, and controls (50 μl) were injected over immobilized anti-mouse Fc followed by antibody in the soluble phase. After each cycle, the surface was regenerated with 50 μl of 40 mM HCl at 30 μl/min. The kinetic analysis was performed using the BIAevaluation 3.1 software (Pharmacia).

CD22mFc [10] = target: T3, CD22mFc; assay: BIACORE 2000, CD22mFc captured via anti-mouse Fc
Procedure: as §2

Molecule: anti-CD22 antibody BLCAM, HD239 (Santa Cruz Biotech)
- Binding of 2nd mAb without G544 adjusted for background (RU) (Fc-CD22 [1]): 19.3 RU
- Inhibition by G544 (%) (Fc-CD22 [2]): 91%
- Response 2 with G544 (combined response, RU) (Fc-CD22 [2]): 629 RU
- Response 3 (Response 2-1) (RU) (Fc-CD22 [2]): -81.8 RU
- Response 3 adjusted for OFF rate of G544 (RU) (Fc-CD22 [2]): 1.7 RU

Molecule: anti-CD19 antibody BU12 (Celltech)
- Inhibition by G544 (%) (Fc-CD22 [2]): 0%
- Response 2 with G544 (combined response, RU) (Fc-CD22 [2]): 603 RU
- Response 3 (Response 2-1) (RU) (Fc-CD22 [2]): -83.5 RU
- Response 3 adjusted for OFF rate of G544 (RU) (Fc-CD22 [2]): 0 RU

Molecule: anti-CD22 antibody SHCL-1, Leu 14 (Becton Dickinson)
- Binding of 2nd mAb without G544 adjusted for background (RU) (Fc-CD22 [1]): 29.3 RU
- Inhibition by G544 (%) (Fc-CD22 [2]): 69%
- Response 2 with G544 (combined response, RU) (Fc-CD22 [2]): 580 RU
- Response 3 (Response 2-1) (RU) (Fc-CD22 [2]): -74.5 RU
- Response 3 adjusted for OFF rate of G544 (RU) (Fc-CD22 [2]): 9 RU

Molecule: anti-CD22 antibody 4 KB128 (Dako Corp)
- Binding of 2nd mAb without G544 adjusted for background (RU) (Fc-CD22 [1]): 739 RU
- Inhibition by G544 (%) (Fc-CD22 [2]): 0%
- Response 2 with G544 (combined response, RU) (Fc-CD22 [2]): 1340 RU
- Response 3 (Response 2-1) (RU) (Fc-CD22 [2]): 652 RU
- Response 3 adjusted for OFF rate of G544 (RU) (Fc-CD22 [2]): 736 RU

Molecule: anti-CD22 antibody To 15 (Dako Corp)
- Binding of 2nd mAb without G544 adjusted for background (RU) (Fc-CD22 [1]): 615 RU
- Inhibition by G544 (%) (Fc-CD22 [2]): 7%
- Response 2 with G544 (combined response, RU) (Fc-CD22 [2]): 1160 RU
- Response 3 (Response 2-1) (RU) (Fc-CD22 [2]): 487 RU
- Response 3 adjusted for OFF rate of G544 (RU) (Fc-CD22 [2]): 570 RU

B1: CMC-544 (G5/44-NAc-gamma-calicheamicin DMH AcBut conjugate), preparation not specified (antibody, human IgG4 S228P, kappa, V domains shown)
VH: EVQLVQSGAEVKKPGASVKVSCKASGYRFTNYWIHWVRQAPGQGLEWIGGINPGNNYATYRRKFQGRVTMTADTSTSTVYMELSSLRSEDTAVYYCTREGYGNYGAWFAYWGQGTLVTVSS
VL: DVQVTQSPSSLSASVGDRVTITCRSSQSLANSYGNTFLSWYLHKPGKAPQLLIYGISNRFSGVPDRFSGSGSGTDFTLTISSLQPEDFATYYCLQGTHQPYTFGQGTKVEIKR
modifications: NAc-gamma calicheamicin DMH AcBut conjugated to the antibody; chain and residues not stated
notes: also called NAc-Gamma Calicheamicin DMH AcBut-G5/44 immunoconjugate
- killing of CD22+ target cells relative to the unconjugated drug [3]: ≥ 10 times
- binding result [4]: no binding
- Kd (CD22mFc [5]): 0.2 nM

B2: CMC-544, CMA-676 process, loading 35 µg/mg (antibody, human IgG4 S228P, kappa, V domains shown)
VH: EVQLVQSGAEVKKPGASVKVSCKASGYRFTNYWIHWVRQAPGQGLEWIGGINPGNNYATYRRKFQGRVTMTADTSTSTVYMELSSLRSEDTAVYYCTREGYGNYGAWFAYWGQGTLVTVSS
VL: DVQVTQSPSSLSASVGDRVTITCRSSQSLANSYGNTFLSWYLHKPGKAPQLLIYGISNRFSGVPDRFSGSGSGTDFTLTISSLQPEDFATYYCLQGTHQPYTFGQGTKVEIKR
modifications: NAc-gamma calicheamicin DMH AcBut conjugated, loading 35 µg/mg; chain and residues not stated
- growth inhibition IC50, Daudi #1 [6]: 80 pM of calicheamicin
- growth inhibition IC50, RL #1 [6]: 30 pM of calicheamicin
- growth inhibition IC50, RL #2 [6]: 40 pM of calicheamicin
- growth inhibition IC50, Raji #2 [6]: 520 pM of calicheamicin
- growth inhibition IC50, Ramos #1 [6]: 130 pM of calicheamicin
- growth inhibition IC50, Daudi #1 [7]: 2.29 µg/mL of antibody
- growth inhibition IC50, RL #1 [7]: 0.86 µg/mL of antibody
- growth inhibition IC50, RL #2 [7]: 1.14 µg/mL of antibody
- growth inhibition IC50, Raji #2 [7]: 14.9 µg/mL of antibody
- growth inhibition IC50, Ramos #1 [7]: 3.71 µg/mL of antibody

B3: CMC-544 (21 µg/mg) (CMA-676 procedure) (antibody, human IgG4 S228P, kappa, V domains shown)
VH: EVQLVQSGAEVKKPGASVKVSCKASGYRFTNYWIHWVRQAPGQGLEWIGGINPGNNYATYRRKFQGRVTMTADTSTSTVYMELSSLRSEDTAVYYCTREGYGNYGAWFAYWGQGTLVTVSS
VL: DVQVTQSPSSLSASVGDRVTITCRSSQSLANSYGNTFLSWYLHKPGKAPQLLIYGISNRFSGVPDRFSGSGSGTDFTLTISSLQPEDFATYYCLQGTHQPYTFGQGTKVEIKR
modifications: NAc-gamma calicheamicin DMH AcBut conjugated, loading 21 µg/mg; chain and residues not stated
- Ka (CD22mFc [8]): 8.1e+09 M⁻¹
- Kd (CD22mFc [8]): 0.12 nM
- koff (CD22mFc [8]): 6.1e-05 s⁻¹
- kon (CD22mFc [8]): 490000 M⁻¹ s⁻¹

B4: humanized anti-CD22 antibody G5/44 (antibody, human IgG4 S228P, kappa, V domains shown)
VH: EVQLVQSGAEVKKPGASVKVSCKASGYRFTNYWIHWVRQAPGQGLEWIGGINPGNNYATYRRKFQGRVTMTADTSTSTVYMELSSLRSEDTAVYYCTREGYGNYGAWFAYWGQGTLVTVSS
VL: DVQVTQSPSSLSASVGDRVTITCRSSQSLANSYGNTFLSWYLHKPGKAPQLLIYGISNRFSGVPDRFSGSGSGTDFTLTISSLQPEDFATYYCLQGTHQPYTFGQGTKVEIKR
notes: also called Humanized G5/44; gL1gH7
- binding result [4]: no binding
- Kd (CD22mFc [5]): 0.235 nM
- Ka (CD22mFc [8]): 7.9e+09 M⁻¹
- Kd (CD22mFc [8]): 0.13 nM
- koff (CD22mFc [8]): 2.8e-05 s⁻¹
- kon (CD22mFc [8]): 220000 M⁻¹ s⁻¹

B5: CMC-544 (87 µg/mg) (CMC-544 procedure) (antibody, human IgG4 S228P, kappa, V domains shown)
VH: EVQLVQSGAEVKKPGASVKVSCKASGYRFTNYWIHWVRQAPGQGLEWIGGINPGNNYATYRRKFQGRVTMTADTSTSTVYMELSSLRSEDTAVYYCTREGYGNYGAWFAYWGQGTLVTVSS
VL: DVQVTQSPSSLSASVGDRVTITCRSSQSLANSYGNTFLSWYLHKPGKAPQLLIYGISNRFSGVPDRFSGSGSGTDFTLTISSLQPEDFATYYCLQGTHQPYTFGQGTKVEIKR
modifications: NAc-gamma calicheamicin DMH AcBut conjugated, loading 87 µg/mg; chain and residues not stated
- Ka (CD22mFc [8]): 6.6e+09 M⁻¹
- Kd (CD22mFc [8]): 0.15 nM
- koff (CD22mFc [8]): 6.9e-05 s⁻¹
- kon (CD22mFc [8]): 460000 M⁻¹ s⁻¹

B6: CMC-544, CMC-544 process, loading 65 µg/mg (antibody, human IgG4 S228P, kappa, V domains shown)
VH: EVQLVQSGAEVKKPGASVKVSCKASGYRFTNYWIHWVRQAPGQGLEWIGGINPGNNYATYRRKFQGRVTMTADTSTSTVYMELSSLRSEDTAVYYCTREGYGNYGAWFAYWGQGTLVTVSS
VL: DVQVTQSPSSLSASVGDRVTITCRSSQSLANSYGNTFLSWYLHKPGKAPQLLIYGISNRFSGVPDRFSGSGSGTDFTLTISSLQPEDFATYYCLQGTHQPYTFGQGTKVEIKR
modifications: NAc-gamma calicheamicin DMH AcBut conjugated, loading 65 µg/mg; chain and residues not stated
- growth inhibition IC50, Daudi #1 [6]: 21 pM of calicheamicin
- growth inhibition IC50, RL #1 [6]: 6 pM of calicheamicin
- growth inhibition IC50, RL #2 [6]: 12 pM of calicheamicin
- growth inhibition IC50, Raji #1 [6]: 500 pM of calicheamicin
- growth inhibition IC50, Raji #2 [6]: 560 pM of calicheamicin
- growth inhibition IC50, Ramos #1 [6]: 200 pM of calicheamicin
- growth inhibition IC50, Ramos #2 [6]: 260 pM of calicheamicin
- growth inhibition IC50, Daudi #1 [7]: 0.32 µg/mL of antibody
- growth inhibition IC50, RL #1 [7]: 0.09 µg/mL of antibody
- growth inhibition IC50, RL #2 [7]: 0.18 µg/mL of antibody
- growth inhibition IC50, Raji #1 [7]: 7.69 µg/mL of antibody
- growth inhibition IC50, Raji #2 [7]: 8.62 µg/mL of antibody
- growth inhibition IC50, Ramos #1 [7]: 3.08 µg/mL of antibody
- growth inhibition IC50, Ramos #2 [7]: 4 µg/mL of antibody

B7: chimeric 5/44 variant K60R (antibody, V domains shown)
VH: EVQLQQSGTVLARPGASVKMSCKASGYRFTNYWIHWVKQRPGQGLEWIGGINPGNNYTTYRRNLKGKATLTAVTSASTAYMDLSSLTSEDSAVYYCTREGYGNYGAWFAYWGQGTLVTVSS
VL: DVVVTQTPLSLPVSFGDQVSISCRSSQSLANSYGNTFLSWYLHKPGQSPQLLIYGISNRFSGVPDRFTGSGSGTDFTLKISTIKPEDLGMYYCLQGTHQPYTFGGGTKLEIKR
notes: Human kappa / human gamma-4 constant regions; The position is as printed
- Kd (CD22mFc [9]): ~0.2 nM

B8: chimeric 5/44 variant N55Q (antibody, V domains shown)
VH: EVQLQQSGTVLARPGASVKMSCKASGYRFTNYWIHWVKQRPGQGLEWIGGINPGNQYTTYKRNLKGKATLTAVTSASTAYMDLSSLTSEDSAVYYCTREGYGNYGAWFAYWGQGTLVTVSS
VL: DVVVTQTPLSLPVSFGDQVSISCRSSQSLANSYGNTFLSWYLHKPGQSPQLLIYGISNRFSGVPDRFTGSGSGTDFTLKISTIKPEDLGMYYCLQGTHQPYTFGGGTKLEIKR
notes: as for B7
- Kd (CD22mFc [9]): ~0.3 nM

B9: chimeric 5/44 variant T57A (antibody, V domains shown)
VH: EVQLQQSGTVLARPGASVKMSCKASGYRFTNYWIHWVKQRPGQGLEWIGGINPGNNYATYKRNLKGKATLTAVTSASTAYMDLSSLTSEDSAVYYCTREGYGNYGAWFAYWGQGTLVTVSS
VL: DVVVTQTPLSLPVSFGDQVSISCRSSQSLANSYGNTFLSWYLHKPGQSPQLLIYGISNRFSGVPDRFTGSGSGTDFTLKISTIKPEDLGMYYCLQGTHQPYTFGGGTKLEIKR
notes: Human kappa / human gamma-4 constant regions; The position is as printed (CDR-H2, Kabat definition); also called construct T57A
- Kd (CD22mFc [9]): ~0.07 nM
- affinity improvement compared to the chimeric 5/44 (fold) (CD22mFc [10]): ~5 fold

Source: US20120213804A1 (Pfizer, published 2012)
